This note sets out measurements from US20250205308A1, “Supraparticles” (THE BIONICS INSTITUTE OF AUSTRALIA, priority 2017, published 2025).

The nature of the data set: In vivo clearance of radiolabelled neurotrophin-3 from the cochlea after supraparticle implantation (whole cochlear gamma counts). As to the method: In vivo studies were carried out to determine the drug payload and clearance of neurotrophin delivered in a supraparticle implanted into the ear after 4 hr, 3 day and 7 days of implantation. The objective was to determine the amount of neurotrophin remaining in the cochlea over time.
1 SP containing radiolabelled neurotrophin-3 was implanted into each cochlea. Cochleae were harvested following 4 hrs (n=5), 3d (n=7) or 7d (n=4). Whole cochlear gamma counts were measured to determine the clearance of neurotrophin-3 over time. After 1 week of implantation each SP contained ˜2 μg of neurotrophin-3 (˜40%) of initial loaded amount.
Further experiments (n=2) were carried out to examine clearance of neurotrophin-3 following round window delivery. 3 days after implantation-whole cochlear measurements were again used to determine the clearance of neurotrophin-3 from the round window membrane.

Setting [1] is: 1 SP implanted into each cochlea, after 1 week of implantation.

In the case of “neurotrophin-3: Radiolabelled neurotrophin delivered in a supraparticle implanted into the cochlea”, under setting [1], the “neurotrophin-3 remaining (% of initial loaded amount)” value is around 40% and the “neurotrophin-3 remaining per SP” value is around 2 µg. Where the note is “intracochlear delivery, 3 days”, this substance had a neurotrophin-3 remaining of 56%. Further, the neurotrophin-3 remaining (round window delivery, 3 days after implantation) is recorded as 47.4%.
